From the DeepSol protein solubility set

Assay: soluble on expression in E. coli; label from the status in PepcDB or PDB records

**Q.** For “WNIHGKESCDVQLYIKRQSEHSILAGDPFELECPVKYCANRPHVTWCKLNGTTCVKLEDRQTSWKEEKNISFFILHFEPVLPNDNGSYRCSANFQSNLIESHSTTLYVTDVKHHHHHHHH”, which “soluble on expression in E. coli” value is on record?
**A.** soluble

**Q.** For “MPQTERQLRVWIEGATGRRIGDNFMDGLKDGVILCELINKLQPGSVQKVNDPVQNWHKLENIGNFLRAIKHYGVKPHDIFEANDLFENTNHTQVQSTLIALASQAKTK”, which “soluble on expression in E. coli” value is on record?
**A.** soluble

**Q.** For “MKNICFINGSPRSKKANSTLYLNLIDKSLDSKNYTKYYIDTTSSIKGDLESTFKTLLDADYIILAFPLYVYSMPSLLVRFLEDYYIYLKNKDTISQKTNLYAVVNCGFPDAKMNVEALKIVFNCCKKLNINFRFGIGIGAGEFVNFSKNNPLLNKLSSCVYKSINKITYDIENQVSIEINNIFVNPKIPRRLFFIFGHIFWKKWAKRNGIKISALFDKPLEHHHHHH”, which “soluble on expression in E. coli” value is on record?
**A.** not soluble

**Q.** For “MKEFIISEARTEPTVLVGLITPQQSETQVREYLDELAFLCETAGAQPIARFTQKLDQPNSVTFVGKGKLDEIRAYVQENEIGMVVFDDELSPKQLRNIEKELQTKILDRTGLILDIFARRAQTAHAKTQVELAQYQYMLPRLTGLWTHLERQRGGVGMRGPGEKQLETDRRIVLDKIARLKEELRDIDKQKSVQRKNRGKMVRVALVGYTNVGKSTLMNVLSKSEVFAENKLFATLDTTVRKVIIDNLPFLLSDTVGFIRKLPTQLVESFKSTLDEVREADLLVHVVDMSHPAFEEQIEVVNQTLAEITAGEEKPMLLLFNKIDAFSFTPKDEDDLTPRTKENISAEELQQTWMAKLGNDCLFVSAKKGTGMDALKALLYERAKAIHITRFPYNDFLFQDYSEEME”, which “soluble on expression in E. coli” value is on record?
**A.** not soluble

**Q.** With “MSLYSIIDIETTGGHASGNRIIEIAIYKFDGEKITDTYQTLINPERRIPVFITSLTGIDTEMVADAPVFADVAREITDFTRDSVFVAHNVNFDYTFVKKELQALNMPYNLPKLCTVRLSRKIFPGLPSYSLGNLCGSLGIDVQNRHRAAGDAEATVRLLNKLLLNDTEGFIPKSLKKNSKETLLPANLPREQFDALPETFGVYYFHDHKGKVIYVGKANNIKKRVISHFSGKQQNQKSQQFMQAIYGLSYEVCGSELLSLLLESHEIKKYFPVYNSIQKFGEKNYGIYQYEDNAGFIRLSIAKVNKLQHPLISFRYISEARTFLLEKVRTFQLCHRRSGLQTAPCSDVELCTACKGTTRSTAYNVKMKRALATFEHPDHSYIIKQPGRTRDEYAVIVVEAGRYLGYAYIPADLSGSTIEELKPFVNRHPDNRDIQKILAMHQRKSMVIAVEGHHHHHH” as the sequence, how does the “soluble on expression in E. coli” value read?
**A.** not soluble

**Q.** Which “soluble on expression in E. coli” value does the source give for “MWIEIICGLVIYKLVRRFFYDDEFSDVETSDSTALFSVAHRLEKLYGGKAYVGLRIPDADTASRQDIDVVLVTKGDVVVISVKNLSGIVTVTSDGSWVCEGGKHHTTETFPDPLAEVKKQASVLESYLEQRGVTLLEGNVSCKVVIPNPSFRTIHAFPSEVITYEDWQQLKPVSKSKISGWVKGAFSTGKEMQESSHQKLNFILGTAPTWDRVELKSSKIVLGEFLEFKGKQEDTLALRNIKRSKVDRVSIQKTSMFGL” here?
**A.** not soluble

**Q.** Which “soluble on expression in E. coli” value does the source give for “MAHHHHHHMFPQGLIDQWLSKSREGRRSVREDRKATPAILDNIARLEEYCRSHPYDVFCASTLQHPPFALHALESEAAEQQRLAQPPPVFAATVPSPSAHTTASNEVRGGVCGRYADGDESRASVTAARQHLHNVAARLAAYLQSSGAVRSSASRHEEESQCTVVADFFVHLLSEAAVAAVYRQGIAAQVEAEERAAFQHRQSQRRLQLRVDSKHDGTLQRLELSDSKGADTEAVHEVEGLTVVRPIADYRRLSQGLASLWSLLAQTQRRGGLAVGGPSKERSRDSTADTDSVNDNDNLWTRVRVDCLRHWLGDRALPPPPPLPGTAALGETQRKTEASSPAMPGGAWWSRPLYISERDVEFALRKVLADVTASAAS” here?
**A.** soluble

**Q.** Which “soluble on expression in E. coli” value does the source give for “MSLKPSTRSNVQPFRVMQMLDRVHRRRREGKDTLMFCAGQPSTGAPEAVIEEAEIALRSGPLGYTEVIGDREFRERIADWHSATYDVDTNPDNVIVTTGSSGGFVASFIATLDHGDYVAMPTPGYPAYRNILESLGAKVLNLRCTAETRFQPTAQMLEELPHKPKAVIVTSPGNPTGTIIDPEELERIAKWCDDNDAVLISDEDYHGMSFGRPLATAHQFSKNAIVVGTLSKYFSMTGWRVGWIIVPDELVTPIENLQASLSLCAPAIGQAAGRAAFTLEAGAELDAHVEAYREAREVFVDKLPEIGLGTFADPDGGLYLWVDVSAYTDDSEEWALRLLDEAGVAVAPGVDFDPEEGHKWIRLSLCASKEDTIEGVRKIGEFIKKEGHHHHHH” here?
**A.** soluble

**Q.** For “MGSDKIHHHHHHMKDIANTPLVSIICSTYNHGLYISQCLDGFLMQKTNFPFEILIHDDASTDNTPDIIREYEHNHPQVIRPIYQKENKYSKKEDIFAKYQCSRVRGKYIAICEGDDYWIDPLKLQKQIDFLENNPDYGMIYTTSKVYNQKKGKIEEDIIGRKFNGYIELLSGNCIPTLTSCIRSALVMEYLKEVEPKSKNWLMGDYPMWLWISYYHKIKFLPESTTVYRVLEESASHSNDIQKYERFILSTIDITAFYIHKFNTPLTEPYLRSLSCFYYDLYDKYMCLGMYKKARHYSKLINPSYVSARMRRRVRRFHLRFIQIRLAKWFDIKGKERK”, which “soluble on expression in E. coli” value is on record?
**A.** not soluble

**Q.** With “MGSDKIHHHHHHMEMKMQQIDILRKLSEVWRLFGDMPDDTTLSVDLAALYLGISVKTLARYRQSGGGPSYIQYQSEGSQARNQRVNYLLKDLRSWRDNHKVSNTMHAAQVRGLAFDSLLDFCKPQPFWQVTDKSSSRDKSKILSHALTIPDDDFKKKLLEPNADIVWISIEEALFNEWQTADERQKWNDIFKEFLNEIISASNAAQEKHILNAILK” as the sequence, how does the “soluble on expression in E. coli” value read?
**A.** not soluble

**Q.** Which “soluble on expression in E. coli” value does the source give for “MSQYSLQVGLTPEGPCSYLPKQKERLAVVMEQELHTALGYQALIRLGFRRSGETIYKPMCEHCDACKPLRINANQFKPSKSQKRLLNKLSSFRWELKSEMDGNWFDLYERYINTRHKTGSMYPANQKQFFEFSHSHWLTNQFLHIYENETLIAIAVSDVLSDSISAMYTFFEPEHPLSLGTISVLIQLKLCKELSKEWLYPGYQIDDCPAMKYKDQYKPNQKLVNMVWQGLEHHHHHH” here?
**A.** soluble

**Q.** For “MITVFGLKSKLAPRREKLAEVIYNSLHLGLDIPKGKHAIRFLCLEKEDFYYPFDRSDDYTVIEINLMAGRMEGTKKRLIKMLFSELEYKLGIRAHDVEITIKEQPAHCWGFRGMTGDEARDLDYDIYV”, which “soluble on expression in E. coli” value is on record?
**A.** soluble

**Q.** Which “soluble on expression in E. coli” value does the source give for “AATTGYDAVDDLLHYHERGNGIQINGKDSFSNEQAGLFITRENQTWNGYKVFGQPVKLTFSFPDYKFSSTNVAGDTGLSKFSAEQQQQAKLSLQSWADVANITFTEVAAGQKANITFGNYSQDRPGHYDYGTQAYAFLPNTIWQGQDLGGQTWYNVNQSNVKHPATEDYGRQTFTHEIGHALGLSHPGDYNAGEGNPTYNDVTYAEDTRQFSLMSYWSETNTGGDNGGHYAAAPLLDDIAAIQHLYGANLSTRTGDTVYGFNSNTGRDFLSTTSNSQKVIFAAWDAGGNDTFDFSGYTANQRINLNEKSFSDVGGLKGNVSIAAGVTIENAIGGSGNDVIVGNAANNVLKGGAGNDVLFGGGGADELWGGAGKDIFVFSAASDSAPGASDWIRDFQKGIDKIDLSFFNKEANSSDFIHFVDHFSGTAGEALLSYNASSNVTDLSVNIGGHQAPDFLVKIVGQVDVATDFIV” here?
**A.** soluble

**Q.** With “MSLNRAFRREQYARMVALSEPLIADYLGVRLPEPVSRIFVFDRREWLEANIVSFSQLFRPIEEMYEKNGGGRGALGVLMNDVSSKLLGVQIGGLLGYLAQRVLGQYDLSLLSAEATGGSLYFVEPNIARVQQQLGLSDEDFRLWITLHEMTHAFEFEAYPWVRTYFRELLEQNFALVSGQMLSSGNSLVDMLMRLLQGEGHHHHHH” as the sequence, how does the “soluble on expression in E. coli” value read?
**A.** not soluble

**Q.** Which “soluble on expression in E. coli” value does the source give for “MSLTDDLKVCNQTGVGEAINQIYKDDGRRCEGYESRDKKCLCISDNNTSLYAILSGHNGVTVAENALQEMAAELLLGQLNVCNTDEAVKELIRQSFMSVEKGYFDSINPHVATKTAIQLHLSADGMNQYEISQQFENVLQKLDSLNNALSVGSSAVLALIHRSHLYLGNIGNCRALLCKTDEHDTLTVTQLSVDHNLLNAEEAARLFRLGLMAQNFEGVPLYSTRCIGNYLGKAGYKDCNFLSSATAEPVIFEPEIVGGIQITPACRFLVLMSSGLCRALHEIFPGDASTGNRELVRMISEEFQNQSTLGGVAQSVVHRIVQAHHDTYMQLVEEHRSVTFNSRDDVTLLIRNFNYAEGHHHHHH” here?
**A.** not soluble

**Q.** With “LWVYPARKPRGKAIIMCPGGGFNQIASDHEGRDFAAWFNNQGITYAVLNYRMPHGDVEVIREDIREAIRLIRRQSAEWGIHQLGVMGASIGGYIAATAATLYTGTDRPDFQVLLYPVISMTDRLTHWPSRERMLGETISEGLKETLSLELHVTADTPPTFIVLAEDDQAVSPLNSIVYYTALLKHGVSAGLHIYPEGGHSFGFRDSFIYKELWTDELQKWL” as the sequence, how does the “soluble on expression in E. coli” value read?
**A.** not soluble

**Q.** Which “soluble on expression in E. coli” value does the source give for “MAFGRRTGKDGGKRKAGHAPVQPADEHVRPEDTVVASAAAASGVEDQEELQGPFDIDDFDDPSVAVLARLDLGSVLIPMPAAGQVQVELTESGVPSAVWVITPNGRYSIAAYAAPKTGGLWREVAGELADSLRKDSAKVSIKDGPWGREVIGIAAGVVRFIGVDGYRWMIRCVVNGPQETVDALTEEAREALADTVVRRGDTPLPVRTPLPVHLPEPMAAQLREAAAAQADTQRQAAAGVARRGAQGSAMQQLRSTTGG” here?
**A.** soluble

**Q.** With “MGSDKIHHHHHHASCEDDEVEYAPLAVTRVSTVLDREQGIDQANLAQYIIVQGTGLNAVNSILVNDVQVDLKDAYITSGEITFPIPRVIPGEINNLITLGSGNSTVTAPISVFIPELEVNGMFNEFTPAGDTMKVVGDYFDLYEITTESGQLFFGGKEVKITKSTGNSLSFVLPEDAVMGSKIKLVSPVCGEVTVPGKYMEKGNMLCDFDPFTGWGGSKYVIDGPVPAPYSGYFSRFKINKGDANDWDWNEVTTIAQCAVEYSPEVIADQNKYLLKFEVNTIKPLTKRQIRFYFSQINYDWEPFASGLALNTNGEWKTVSIDLGEMWKGDIPNDGVLQIMGNSWAEDTDICFDNFRIVPKD” as the sequence, how does the “soluble on expression in E. coli” value read?
**A.** not soluble

**Q.** For “MQGQGDLFESTDWQEVRQGKLFYQPNFLSQQEADTYFSTLMSTLPWQQERITIFGKSVLQPRLQTWHGDAPYTYSGLTMAPHPWTSELSSLKARCESLANTPFNSVLANLYRDGQDSMGWHQDNEPELGRNPVIASLNLGDTRRFVLRNLHCKTQIEYELGHGALLIMAGELQHHWRHCVPKTAKPKGERINLTFRHILNYLEHHHHHH”, which “soluble on expression in E. coli” value is on record?
**A.** soluble

**Q.** With “ETVLADRFERLVELVTMMGDQGELPIAMALANVVPCSQWDELARVLVTLFDSRHLLYQLLWNMFSKEVELADSMQTLFRGNSLASKIMTFCFKVYGATYLQKLLDPLLRIVITSSDWQHVSFEVDPTRLEPSESLEENQRNLLQMTEKFFHAIISSSSEFPPQLRSVCHCLYQVVSQRFPQNSIGAVGSAMFLRFINPAIVSPYEAGILDKKPPPIIERGLKLMSKILQSIANHVLFTKEEHMRPFNDFVKSNFDAARRFFLDIASDCPTSDAVNHSLSFISDGNVLALHRLLWNNQEKIGQYLSSNRDHKAVGRRPFDKMATLLAYLGPPEH” as the sequence, how does the “soluble on expression in E. coli” value read?
**A.** soluble

**Q.** For “MASPLRFDGRVVLVTGAGGGLGRAYALAFAERGALVVVNDLGGDFKGVGKGSSAADKVVEEIRRRGGKAVANYDSVEAGEKLVKTALDTFGRIDVVVNNAGILRDRSFSRISDEDWDIIQRVHLRGSFQVTRAAWDHMKKQNYGRIIMTASASGIYGNFGQANYSAAKLGLLGLANTLVIEGRKNNIHCNTIAPNAGSRMTETVMPEDLVEALKPEYVAPLVLWLCHESCEENGGLFEVGAGWIGKLRWERTLGAIVRKRNQPMTPEAVRDNWVKICDFSNASKPKSIQESTGGIIEVLHKIDSEGISQNHTGQVASAD”, which “soluble on expression in E. coli” value is on record?
**A.** soluble
